Laboratory results as given in the supplement of paper PMC7877785.
± gives the uncertainty stated by the source.

Assay: self-splicing fitness, log relative to wild type (ln ratio); higher = more splicing; Tetrahymena group I intron in knt gene, E. coli kanamycin selection, DiMSum; sequences stand for … in CUCUCU…GGAGGGAAAAGUUAUCAGGCAUGCACCUGGUAGCUAGUCUUUAAACCAAUAGAUUGCAUCGGUUUAAAAGGCAAGACCGUCAAAUUGCGGGAAAGGGGUCAACAGCCGUUCAGUACCAAGUCUCAGGGGAAACUUUGAGAUGGCCUUGCAAAGGGUAUGGUAAUAAGCUGACGGACAUGGUCCUAACCACGCAGCCAAGUCCUAAGUCAACAGAUCUUCUGUUGAUAUGGAUGCAGUUCACAGACUAAAUGUCGGUCGGGGAAGAUGUAUUCUUCUCAUAAGAUAUAGUCGGACCUCUCCUUAAUGGGAGCUAGCGGAUGAAGUGAUGCAACACUGGAGCCGCUGGGAACUAAUUUGUAUGCGAAAGUAUAUUGAUUAGUUUUGGAGUACUCGUGGUCG
Method in brief: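 Fitness was computed with DiMSum as the error-weighted combination of replicate fold changes, kanamycin versus none, each normalised to wild type. The library randomised all eight intron nucleotides of the P1ex region, with the intron placed in the knt kanamycin-resistance gene on pET-22b(+) in E. coli BL21(DE3). Six replicate transformations were grown overnight at 37°C or 30°C on LB agar with or without 25 μg/mL kanamycin, plus 100 μg/mL carbenicillin, 50 μM IPTG and 0.2% rhamnose. Pooled colonies were amplicon-sequenced on an Illumina HiSeq 2500.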

Row | Sequence | self-splicing fitness (ln) (30 °C) | self-splicing fitness (ln) (37 °C)
1 | GUUUAGCAAUAUUACGUAGA | -2.37 ± 0.15 | -0.622 ± 0.2
2 | GUUUAGCAAUAUUACGUCGU | -0.72 ± 0.21 | -0.885 ± 0.21
3 | GUUUAGCAAUAUUACGUGUA | -2.53 ± 0.092 | -0.725 ± 0.077
4 | GUUUAGCAAUAUUACGUGUU | -2.4 ± 0.13 | -2.35 ± 0.14
5 | GUUUAGCAAUAUUACGUUAA | -1.87 ± 0.33 | -1.68 ± 0.24
6 | UAAAAGCAAUAUUACGAAUG | -1.18 ± 0.067 | 0.0515 ± 0.081
7 | UAAAAGCAAUAUUACGAAUU | -3.12 ± 0.15 | -1.95 ± 0.18
8 | UAAAAGCAAUAUUACGACGC | -2.67 ± 0.18 | -0.32 ± 0.15
9 | UAAAAGCAAUAUUACGACGG | 0.0981 ± 0.087 | -0.342 ± 0.13
10 | UAAAAGCAAUAUUACGAGCA | -0.549 ± 0.088 | -0.276 ± 0.1
11 | UAAAAGCAAUAUUACGAGGC | -2.69 ± 0.34 | -2.67 ± 0.36
12 | UAAAAGCAAUAUUACGAUAU | -2.59 ± 0.1 | -0.953 ± 0.1
13 | UAAAAGCAAUAUUACGCGCG | -0.577 ± 0.087 | 0.0302 ± 0.11
14 | UAAAAGCAAUAUUACGCUCU | -1.02 ± 0.12 | -0.11 ± 0.14
15 | UAAAAGCAAUAUUACGCUGU | -3.01 ± 0.23 | -2.26 ± 0.2
16 | UAAAAGCAAUAUUACGGACG | 0.221 ± 0.11 | 0.00931 ± 0.13
17 | UAAAAGCAAUAUUACGGAGG | -2.7 ± 0.17 | -2.07 ± 0.16
18 | UAAAAGCAAUAUUACGGGAU | -3.01 ± 0.27 | -2.23 ± 0.18
19 | UAAAAGCAAUAUUACGGUCU | -1.83 ± 0.076 | -0.678 ± 0.079
20 | UAAAAGCAAUAUUACGGUUA | 0.139 ± 0.067 | 0.222 ± 0.079
21 | UAAAAGCAAUAUUACGUACG | -0.745 ± 0.084 | 0.35 ± 0.12
22 | UAAAAGCAAUAUUACGUCCC | -2.74 ± 0.32 | -0.909 ± 0.24
23 | UAAAAGCAAUAUUACGUCGG | -0.992 ± 0.097 | -0.876 ± 0.12
24 | UAAAAGCAAUAUUACGUGCC | -2.01 ± 0.092 | -1.26 ± 0.12

Row | Sequence | self-splicing fitness (ln) (30 °C) | self-splicing fitness (ln) (37 °C)
25 | UAAAAGCAAUAUUACGUGCU | -2.62 ± 0.1 | -1.56 ± 0.11
26 | UAAAAGCAAUAUUACGUUCC | -3.46 ± 0.3 | -2.57 ± 0.29
27 | UAAAAGCAAUAUUACGUUGA | -2.41 ± 0.11 | -1.46 ± 0.11
28 | UAAAAGCAAUAUUACGUUUA | -1.14 ± 0.099 | -0.871 ± 0.099
29 | UAACAGCAAUAUUACGAACC | -2.12 ± 0.17 | -1.73 ± 0.24
30 | UAACAGCAAUAUUACGAACG | -0.391 ± 0.078 | 0.172 ± 0.11
31 | UAACAGCAAUAUUACGACAU | -1.139 ± 0.011 | -0.372 ± 0.032
32 | UAACAGCAAUAUUACGAGUA | -0.835 ± 0.099 | 0.134 ± 0.099
33 | UAACAGCAAUAUUACGAUGU | -2.73 ± 0.13 | -2.08 ± 0.14
34 | UAACAGCAAUAUUACGCACC | -2.33 ± 0.29 | -1.88 ± 0.43
35 | UAACAGCAAUAUUACGCCCC | -1.03 ± 0.28 | -0.834 ± 0.47
36 | UAACAGCAAUAUUACGCCGA | -1.95 ± 0.11 | -0.415 ± 0.089
37 | UAACAGCAAUAUUACGCCGU | -3.54 ± 0.24 | -1.94 ± 0.19
38 | UAACAGCAAUAUUACGCUCU | -1.12 ± 0.073 | -0.498 ± 0.08
39 | UAACAGCAAUAUUACGCUGC | -2.45 ± 0.3 | -1.92 ± 0.28
40 | UAACAGCAAUAUUACGGAUG | -1.51 ± 0.053 | -0.304 ± 0.063
41 | UAACAGCAAUAUUACGGGUG | -0.577 ± 0.049 | -0.256 ± 0.068
42 | UAACAGCAAUAUUACGGUAC | -3.84 ± 0.2 | -2.06 ± 0.13
43 | UAACAGCAAUAUUACGGUCG | -0.363 ± 0.04 | -0.0859 ± 0.056
44 | UAACAGCAAUAUUACGUAAG | -1.46 ± 0.07 | -1.25 ± 0.084
45 | UAACAGCAAUAUUACGUACA | -0.576 ± 0.071 | -0.319 ± 0.092
46 | UAACAGCAAUAUUACGUCCG | -0.0665 ± 0.086 | 0.0833 ± 0.12
47 | UAACAGCAAUAUUACGUGCG | -0.551 ± 0.072 | 0.0501 ± 0.085
